According to patent US20240067932A1, “METHODS AND COMPOSITIONS FOR GENERATING HEMOGENIC ENDOTHELIAL CELLS FROM PLURIPOTENT STEM CELLS” (Trailhead Biosystems Inc., priority 2022, published 2024):

What was measured:
[1] = test system: early mesoderm progenitors; test: 8-factor HD-DoE experiments optimized for maximum GATA2 expression (qPCR, partial least squares models); format: cell-based, human; conditions: fifth model, FIG. 6; factors VPA, SCF, BMP4, EFG, FLT3L, Arginine, Retinoic Acid, VEGF
[2] = test system: early mesoderm progenitors; test: Factor criticality / dynamic profile analysis of gene expression on removal of a finalized effector; format: cell-based, human; design: expression level of GATA2 / expression level of TAL1 / expression level of CD44 / expression level of KDR / expression level of CD34 / expression level of CD31: unit not given here
[3] = model FIG. 11, named factor removed

B1: BMP4: BMP pathway agonist (protein, UniProt P12644 293-408, looked up)
Bone morphogenetic protein 4: SPKHHSQRARKKNKNCRRHSLYVDFSDVGWNDWIVAPPGYQAFYCHGDCPFPLADHLNSTNHAIVQTLVNSVNSSIPKACCVPTELSAISMLYLDEYDKVVLKNYQEMVVEGCGCR
[1]
  factor contribution (maximum expression of GATA2): 31
[2]; model FIG. 11 (Retinoic Acid, BMP4, VEGF), factor present
  expression level of GATA2: 519
[2]; model FIG. 11, factor present
  expression level of CD31: 768
  expression level of CD34: 3971
  expression level of FLI1 (Fill [sic]): 3250
  expression level of KDR: 17667
  expression level of TAL1: 490
[2]; [3]
  expression level of CD31: 682
  expression level of CD34: 3455
  expression level of FLI1 (Fill [sic]): 2213
  expression level of GATA2: 338
  expression level of KDR: 10025
  expression level of TAL1: 422
